Where two headings read alike, the source gives them in different places.
Legend:
M.K. polB DNA polymerase = M.K. polB DNA polymerase (Methanopyrus kandleri, UniProt Q8TWJ5); test: Effects of media components on M.K. polB DNA polymerase activity (primer extension); format: biochemical
Experimental: (§1) DNA polymerase reaction mixtures (15-20 μl) contained dATP, dTTP, dCTP, and dGTP (1 mM each), 4.5 mM MgCl2, detergents Tween 20 and Nonidet P-40 (0.2% each), fixed concentrations of PTJ—duplex, other additions, as indicated, and appropriate amounts of polB in 30 mM Tris-HCl buffer pH 8.0 (25° C.). The background reaction mixtures contained all components except DNA polymerases. Primer extensions were carried out for a preset time at 75° C. in PTC-150 Minicycler (MJ Research, Inc.; Waltham, Mass.). 5 μl samples were removed and chilled to 4° C. followed by immediate addition of 20 μl of 20 mM EDTA. The samples were desalted by centrifugation through Sephadex G-50 spun columns, diluted, and analyzed on a ABI Prism 377 DNA sequencer (Applied BioSystems; Foster City, Calif.). For each sample, raw data were extracted from the sequencer trace files with the program Chromas 1.5 (Technelysium Pty Ltd., Australia), and the fluorescent signals were analyzed by our nonlinear regression data analysis programs written in Fortran. The programs applied Powell algorithms to approximate the signals by a number of Gaussian peaks and calculate integral fluorescent intensities for each product peak. The total amount of fluorescent products for each time of incubation was determined, and the initial rates of extension were calculated.
(§2) The next two tables (Table 4 and 5) display effects of various media components on M.K. polB DNA polymerase activity. Initial rates of primer extension reaction were measured as described by Pavlov et al., 2002.

[1] = system: Mka PolB 3'-5' exonuclease activity; test: Effect of salts on 3'-5' exonuclease activity of Mka PolB; format: biochemical, Methanopyrus kandleri
Experimental: (§3) A 3′→5′ exonuclease activity of polB polymerase was measured at the same conditions as in the primer extension assay, except omitting dideoxynucleotides. A fluorescent primer:
Conclusions: • 1. KGlu inhibits the 3′-5′ exonuclease activity of Mka PolB, while NaCl stimulates it. • 2. KGlu, diphosphoglycerate, and Mka PCNA (see below) increase the polymerase activity of PolB. • 3.

polB DNA polymerase = test: Thermostability of polB DNA polymerase in various media; format: biochemical, Methanopyrus kandleri; conditions: 1 M Betaine, potassium glutamate, 100° C.
Experimental: To determine DNA polymerase activity and thermostability of DNA polymerase polB in various media. Proteins in 25 μl of 20 mM Tris-HCl buffer (pH 8.0 at 25° C.) containing indicated concentrations of salts and betaine were incubated in PTC-150 Minicycler (MJ Research) at 95° C. or 100° C. 4 μl samples were removed at defined times of incubation and assayed for primer extension activity.
The stabilizing effect of betaine is diminished in the presence of organic solvents DMSO and formamide.

[2] = system: DNA duplex of FIG. 16 (PTJ); test: Initial rates of primer extension reactions in salts (inhibition of polymerases and chimeras by NaCl, KCl, K-Glu); format: biochemical
Experimental: The polymerase activities of the four chimeras were tested by measuring initial rates of primer extension reactions. The reactions were carried out at low concentrations of substrate, when the initial rates were proportional both to total protein and PTJ concentrations. When [PTJ] is much less than Kmapp, the initial rate is determined as in Equation 1: v1=kapp/Kmapp*[Et]*[PTJ]1 Eq. 1 • where Kmapp and kapp are apparent Michaelis and catalytic constants, respectively.
The concentrations of sodium chloride (NaCl), potassium chloride (KCl) and potassium glutamate (K-Glu) were varied to assess inhibition of the Stoffel fragment and KlenTaq, and the four chimeras by salts, and to estimate the effects of the HhH domains.
Experimental values of initial polymerization rates were analyzed by nonlinear regression analysis using Equation 2: [formula] where v and v0 are initial primer extension rates with and without salt, respectively, Ki is the apparent inhibition constant; and α is the cooperativity parameter.
In Table 2, to take into account the activation of Pfu polymerase and the PfuC2 hybrid by KGlu (data entries marked with an asterisk (*), the experimental values of initial polymerization rates were analyzed by nonlinear regression using the Equation 3: [formula]
where v and v0 are initial primer extension rates with and without salt, respectively; Ki is an apparent inhibition constant, α is a parameter of cooperativity, β and γ are parameters of activation. Since γ≅2, it is likely that two ions of Glu^− bind to the Pfu polymerase catalytic domain without inhibiting the polymerase activity.

[3] = target: T1, M. kandleri AV19 PCNA (MK1030), DNA polymerase sliding clamp
T1 chain: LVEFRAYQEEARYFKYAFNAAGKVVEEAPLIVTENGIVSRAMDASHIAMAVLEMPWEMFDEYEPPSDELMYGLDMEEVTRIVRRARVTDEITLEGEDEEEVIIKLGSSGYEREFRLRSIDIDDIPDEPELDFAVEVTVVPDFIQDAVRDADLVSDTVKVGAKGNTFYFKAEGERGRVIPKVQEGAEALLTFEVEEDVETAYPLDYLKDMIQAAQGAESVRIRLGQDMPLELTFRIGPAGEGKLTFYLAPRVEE

[4] = system: fluorescent duplex substrate containing a primer-template junction (PTJ); test: Primer extension assay of PolB DNA polymerase activity; format: biochemical
Experimental: A primer extension assay was applied with a fluorescent duplex substrate containing a primer-template junction (PTJ). The duplex shown in FIG. 18 was prepared by annealing a 5′-end labeled with fluorescein 20-nt long primer with a 40-nt long template:
as §1, §2
Table 6 illustrates the dependency of initial rates of primer extension for Duplex 2 shown in FIG. 17 on temperature of the reaction. Initial rates of primer extension reaction were measured as described by Pavlov et al., 2002.

[5] = system: fluorescent primer *FL-GTAATACGACTCACTATAGGG; test: 3'→5' exonuclease activity of polB; format: biochemical
Experimental: as §3
was incubated with the enzyme at defined times. Then, the amounts of formed products were calculated, and the initial rates of hydrolysis were found, as in case of primer extension. It is interesting that polB was able to cleave off only 9 nucleotides of the primer, that is, the […] primer was the shortest substrate that polB could process.

[6] = system: fluorescent duplex substrate containing a primer-template junction (PTJ); test: Primer extension assay of PolB DNA polymerase activity; format: biochemical; remark: listed apart in the source

Sequence of M.K. polB DNA polymerase (Q8TWJ5 entry or part of it): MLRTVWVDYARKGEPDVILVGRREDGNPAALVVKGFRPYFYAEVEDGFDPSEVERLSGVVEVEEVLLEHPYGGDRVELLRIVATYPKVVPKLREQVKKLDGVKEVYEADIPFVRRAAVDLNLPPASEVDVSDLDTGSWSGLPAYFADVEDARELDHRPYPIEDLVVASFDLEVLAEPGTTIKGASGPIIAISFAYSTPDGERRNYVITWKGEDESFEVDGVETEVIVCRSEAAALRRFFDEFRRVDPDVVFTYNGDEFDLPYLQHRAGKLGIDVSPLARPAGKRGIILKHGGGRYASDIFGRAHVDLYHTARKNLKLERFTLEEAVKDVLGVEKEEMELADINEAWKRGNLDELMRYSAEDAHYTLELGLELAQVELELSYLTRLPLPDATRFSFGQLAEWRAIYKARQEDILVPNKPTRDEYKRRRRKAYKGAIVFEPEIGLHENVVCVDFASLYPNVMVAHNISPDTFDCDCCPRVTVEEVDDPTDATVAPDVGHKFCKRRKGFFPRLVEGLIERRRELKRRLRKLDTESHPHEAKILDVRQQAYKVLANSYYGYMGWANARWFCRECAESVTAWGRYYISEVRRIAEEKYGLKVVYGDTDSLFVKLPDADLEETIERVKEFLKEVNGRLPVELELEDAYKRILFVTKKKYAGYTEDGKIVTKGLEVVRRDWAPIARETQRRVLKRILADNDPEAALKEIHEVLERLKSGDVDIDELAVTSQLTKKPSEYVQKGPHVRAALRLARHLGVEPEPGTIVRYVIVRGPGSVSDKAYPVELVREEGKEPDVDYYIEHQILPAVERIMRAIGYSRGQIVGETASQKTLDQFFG

## N [NH4OH]
M.K. polB DNA polymerase; M.K. polB DNA polymerase activity, primer extension, read-out: IC50 (Inhibition constants in different media)
  IC50: < 30 mM

## [Cl-].[Na+] [NaCl, sodium chloride]
[1]
  effect on 3'-5' exonuclease activity of Mka PolB: stimulates

## C[N+](C)(C)CC(=O)O [Betaine]
polB DNA polymerase
  effect on thermostability of polB DNA polymerase: stabilize specifically polB DNA polymerase

## N[C@@H](CCC(=O)[O-])C(=O)[O-].[K+].[K+] [KGlu, potassium glutamate]
M.K. polB DNA polymerase
  effect on polymerase activity of PolB: increase
M.K. polB DNA polymerase; 0.8 M of the salt
  increase of polymerase activity of polB: about twenty-fold
[1]
  effect on 3'-5' exonuclease activity of Mka PolB: inhibits

## O=C(O)[C@@H](COP(=O)(O)O)OP(=O)(O)O [diphosphoglycerate]
M.K. polB DNA polymerase
  effect on polymerase activity of PolB: increase

## Taq Polymerase: DNA polymerase from Thermus aquaticus [reference compound]
[2]; KGlu versus KCl
  increase of Ki on substituting KCl with KGlu: 4 fold
[2]; NaCl
  NaCl concentration at which 20% inhibition of primer extension reaction occurs: about 90 mM

B1: M. kandleri AV19 DNA polymerase family B (Mka PolB) (MK1039) (protein)
chain: LLRTVWVDYARKGEPDVILVGRREDGNPAALVVKGFRPYFYAEVEDGFDPSEVERLSGVVEVEEVLLEHPYGGDRVELLRIVATYPKVVPKLREQVKKLDGVKEVYEADIPFVRRAAVDLNLPPASEVDVSDLDTGSWSGLPAYFADVEDARELDHRPYPIEDLVVASFDLEVLAEPGTTIKGASGPIIAISFAYSTPDGERRNYVITWKGEDESFEVDGVETEVIVCRSEAAALRRFFDEFRRVDPDVVFTYNGDEFDLPYLQHRAGKLGIDVSPLARPAGKRGIILKHGGGRYASDIFGRAHVDLYHTARKNLKLERFTLEEAVKDVLGVEKEEMELADINEAWKRGNLDELMRYSAEDAHYTLELGLELAQVELELSYLTRLPLPDATRFSFGQLAEWRAIYKARQEDILVPNKPTRDEYKRRRRKAYKGAIVFEPEIGLHENVVCVDFASLYPNVMVAHNISPDTFDCDCCPRVTVEEVDDPTDATVAPDVGHKFCKRRKGFFPRLVEGLIERRRELKRRLRKLDTESHPHEAKILDVRQQAYKVLANSYYGYMGWANARWFCRECAESVTAWGRYYISEVRRIAEEKYGLKVVYGDTDSLFVKLPDADLEETIERVKEFLKEVNGRLPVELELEDAYKRILFVTKKKYAGYTEDGKIVTKGLEVVRRDWAPIARETQRRVLKRILADNDPEAALKEIHEVLERLKSGDVDIDELAVTSQLTKKPSEYVQKGPHVRAALRLARHLGVEPEPGTIVRYVIVRGPGSVSDKAYPVELVREEGKEPDVDYYIEHQILPAVERIMRAIGYSRGQIVGETASQKTLDQFFG
[3]
  hydrolysis of the primer annealed to the duplex (3'-5' exonuclease activity of polB): suppression of hydrolysis of the primer annealed to the duplex
[4]
  use of dUTP for primer extensions: can use dUTP for primer extensions
[4]; 0.5 M NaCl
  Initial Rate of Primer Extension: 0.123 ± 0.003 µM/min
[4]; 0.5 M NaCl + PCNA
  Initial Rate of Primer Extension: 0.214 ± 0.014 µM/min
[4]; 1 M DPG
  Initial Rate of Primer Extension: 2.17 ± 0.16 µM/min
[4]; 1 M KGlu
  Initial Rate of Primer Extension: 2.74 ± 0.18 µM/min
[4]; 1 M KGlu, dUTP
  Initial Rate of Primer Extension: 1.82 ± 0.09 µM/min
[4]; Duplex 2 (FIG. 17)
  temperature up to which primers are extended: up to 105 °C
[4]; Duplex 2 (FIG. 17), 50 °C
  Initial Rate of Primer Extension: 1.01 ± 0.06 µM/min
[4]; Duplex 2 (FIG. 17), 55 °C
  Initial Rate of Primer Extension: 1.08 ± 0.09 µM/min
[4]; Duplex 2 (FIG. 17), 60 °C
  Initial Rate of Primer Extension: 1.12 ± 0.08 µM/min
[4]; Duplex 2 (FIG. 17), 65 °C
  Initial Rate of Primer Extension: 1.23 ± 0.05 µM/min
[4]; Duplex 2 (FIG. 17), 70 °C
  Initial Rate of Primer Extension: 1.01 ± 0.07 µM/min
[4]; Duplex 2 (FIG. 17), 75 °C
  Initial Rate of Primer Extension: 0.95 ± 0.07 µM/min
[4]; Duplex 2 (FIG. 17), 80 °C
  Initial Rate of Primer Extension: 0.92 ± 0.07 µM/min
[4]; Duplex 2 (FIG. 17), 85 °C
  Initial Rate of Primer Extension: 0.94 ± 0.07 µM/min
[4]; Duplex 2 (FIG. 17), 90 °C
  Initial Rate of Primer Extension: 0.71 ± 0.05 µM/min
[4]; Duplex 2 (FIG. 17), 95 °C
  Initial Rate of Primer Extension: 0.62 ± 0.04 µM/min
[4]; Duplex 2 (FIG. 17), 100 °C
  Initial Rate of Primer Extension: 0.62 ± 0.06 µM/min
[4]; Duplex 2 (FIG. 17), 105 °C
  Initial Rate of Primer Extension: 0.55 ± 0.09 µM/min
[5]
  nucleotides of the primer cleaved off: 9 nucleotides
  shortest substrate that polB could process: 13 nt
[6]
  resistance to aggressive chemicals: resistant to aggressive chemicals

B2: Pfu polymerase: whole size Pfu polymerase (protein, UniProt P61875 1-775, looked up)
chain: MILDVDYITEEGKPVIRLFKKENGKFKIEHDRTFRPYIYALLRDDSKIEEVKKITGERHGKIVRIVDVEKVEKKFLGKPITVWKLYLEHPQDVPTIREKVREHPAVVDIFEYDIPFAKRYLIDKGLIPMEGEEELKILAFDIETLYHEGEEFGKGPIIMISYADENEAKVITWKNIDLPYVEVVSSEREMIKRFLRIIREKDPDIIVTYNGDSFDFPYLAKRAEKLGIKLTIGRDGSEPKMQRIGDMTAVEVKGRIHFDLYHVITRTINLPTYTLEAVYEAIFGKPKEKVYADEIAKAWESGENLERVAKYSMEDAKATYELGKEFLPMEIQLSRLVGQPLWDVSRSSTGNLVEWFLLRKAYERNEVAPNKPSEEEYQRRLRESYTGGFVKEPEKGLWENIVYLDFRALYPSIIITHNVSPDTLNLEGCKNYDIAPQVGHKFCKDIPGFIPSLLGHLLEERQKIKTKMKETQDPIEKILLDYRQKAIKLLANSFYGYYGYAKARWYCKECAESVTAWGRKYIELVWKELEEKFGFKVLYIDTDGLYATIPGGESEEIKKKALEFVKYINSKLPGLLELEYEGFYKRGFFVTKKRYAVIDEEGKVITRGLEIVRRDWSEIAKETQARVLETILKHGDVEEAVRIVKEVIQKLANYEIPPEKLAIYEQITRPLHEYKAIGPHVAVAKKLAAKGVKIKPGMVIGYIVLRGDGPISNRAILAEEYDPKKHKYDAEYYIENQVLPAVLRILEGFGYRKEDLRYQKTRQVGLTSWLNIKKS
modifications: full-length
[2]; inhibition by KCl, read-out: Ki (KCl), apparent inhibition constant
  Ki: 42.6 ± 1 mM
[2]; inhibition by NaCl, nonlinear regression Eq. 2, read-out: Ki (NaCl), apparent inhibition constant
  Ki: 51.5 ± 1 mM
